Laboratory results: paper PMC10477855

Target: UBR5 (UniProt O95071)
Experiment: co-IP and immunoblot, transfected cells
Conditions: reference: ACSL4 wild type; sites S447

**Q.** With ACSL4 (from UniProt O60488) ACSL4 S447A as the substance, how does the “binding against the reference” value read?
**A.** lost
